The target of experiment [1] is T1, FLAG-GST-fused MDM2 (UniProt P23804 1-489).
T1 construct: Immobilized on glutathione magnetic beads on the non-denatured protein array; Order of the parts follows the printed name FLAG-GST; also called FLAG-GST-fused immobilized substance (MDM2); not shown: FLAG tag protein; GST protein (glutathione S-transferase tag)
As to the kind of experiment: proximity-biotinylation bead array, streptavidin-HRP luminescence; labeling 37°C 24 h; exposure 10 min.

The target of experiment [2] is T2, FLAG-GST-fused RelA (UniProt Q04206 1-551).
T2 construct: Immobilized on glutathione magnetic beads on the non-denatured protein array; Order of the parts follows the printed name FLAG-GST; also called FLAG-GST-fused immobilized substance (RelA); not shown: FLAG tag protein; GST protein (glutathione S-transferase tag)
The description is as above.

In experiment [3] the target is T1, FLAG-GST-fused MDM2. The experiment can be described thus: proximity-biotinylation bead array, streptavidin-HRP luminescence; labeling 26°C 1 h; exposure 3 min; the filing calls the signal on this pair non-specific.
In experiment [4] the target is T1, FLAG-GST-fused MDM2. The experiment can be described thus: proximity-biotinylation bead array, streptavidin-HRP luminescence; labeling 26°C 3 h; exposure 3 min; the filing calls the signal on this pair non-specific.
Experiment [5] concerns the target T1, FLAG-GST-fused MDM2. As to the kind of experiment: proximity-biotinylation bead array, streptavidin-HRP luminescence; labeling 26°C 30 min; exposure 3 min; the filing calls the signal on this pair non-specific.
For experiment [6], the target named is T2, FLAG-GST-fused RelA. The experiment can be described thus: proximity-biotinylation bead array, streptavidin-HRP luminescence; labeling 26°C 1 h; exposure 3 min; the filing calls the signal on this pair non-specific.
The target of experiment [7] is T2, FLAG-GST-fused RelA. As to the kind of experiment: proximity-biotinylation bead array, streptavidin-HRP luminescence; labeling 26°C 3 h; exposure 3 min; the filing calls the signal on this pair non-specific.
In experiment [8] the target is T2, FLAG-GST-fused RelA. As to the kind of experiment: proximity-biotinylation bead array, streptavidin-HRP luminescence; labeling 26°C 30 min; exposure 3 min; the filing calls the signal on this pair non-specific.
In experiment [9] the target is T3, MDM2 (Mus musculus, UniProt P23804).
T3 construct: made in house; host or cells: wheat cell-free protein synthesis
The experiment can be described thus: AirID proximity-dependent biotin labeling on non-denatured protein array, TP53 and MDM2 (Example 2). The settings on record: AirID-fused TP53; FLAG-GST-MDM2 on magnetic beads; HRP-labeled streptavidin. The format is binding. From the text: As a substance to be analyzed, template DNA in which TP53 (SEQ ID NO: 4) or Iκβα (SEQ ID NO: 5) was fused to AirID (SEQ ID NO: 3) was synthesized. As an immobilized substance (target protein), template DNA in which MDM2 (SEQ ID NO: 10), RelA (SEQ ID NO: 11), or any one of 10 kinds of proteins (controls) for comparison was fused to a FLAG™ tag protein and a GST protein was synthesized.
Thus, a non-denatured protein array was produced.

Experiment [10] addresses T1, FLAG-GST-fused MDM2. As to the kind of experiment: proximity-biotinylation bead array, streptavidin-HRP luminescence; labeling 26°C; exposure 10 min.
Experiment [11] concerns the target T1, FLAG-GST-fused MDM2. As to the kind of experiment: proximity-biotinylation bead array, streptavidin-HRP luminescence; labeling 26°C 1 h; exposure 10 min.
Experiment [12] concerns the target T2, FLAG-GST-fused RelA. Described as above.
For experiment [13], the target named is T1, FLAG-GST-fused MDM2. The experiment can be described thus: proximity-biotinylation bead array, streptavidin-HRP luminescence; labeling 26°C 3 h; exposure 10 min.
Experiment [14] deals with T2, FLAG-GST-fused RelA. Described as above.
Experiment [15] deals with T1, FLAG-GST-fused MDM2. The experiment can be described thus: proximity-biotinylation bead array, streptavidin-HRP luminescence; labeling 26°C 30 min; exposure 10 min.
In experiment [16] the target is T2, FLAG-GST-fused RelA. The experiment is described as above.

Where only a bound is given, the exact number is not on record here.

T1 sequence (P23804 whole entry, the tested form may be a part): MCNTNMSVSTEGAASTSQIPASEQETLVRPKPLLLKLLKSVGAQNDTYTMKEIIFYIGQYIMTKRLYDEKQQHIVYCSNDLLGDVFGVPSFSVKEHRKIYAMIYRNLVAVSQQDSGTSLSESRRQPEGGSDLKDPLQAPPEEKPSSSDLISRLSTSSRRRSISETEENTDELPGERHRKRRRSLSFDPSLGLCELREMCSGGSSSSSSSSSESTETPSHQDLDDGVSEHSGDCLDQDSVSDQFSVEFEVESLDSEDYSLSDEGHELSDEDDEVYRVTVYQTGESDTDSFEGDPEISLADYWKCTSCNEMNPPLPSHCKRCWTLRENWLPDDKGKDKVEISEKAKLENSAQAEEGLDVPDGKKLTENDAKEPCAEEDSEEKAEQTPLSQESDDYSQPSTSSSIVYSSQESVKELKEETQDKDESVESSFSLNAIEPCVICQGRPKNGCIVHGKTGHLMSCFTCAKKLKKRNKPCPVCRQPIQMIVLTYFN
T2 sequence (Q04206 other isoform, or with tags, fused parts or gaps): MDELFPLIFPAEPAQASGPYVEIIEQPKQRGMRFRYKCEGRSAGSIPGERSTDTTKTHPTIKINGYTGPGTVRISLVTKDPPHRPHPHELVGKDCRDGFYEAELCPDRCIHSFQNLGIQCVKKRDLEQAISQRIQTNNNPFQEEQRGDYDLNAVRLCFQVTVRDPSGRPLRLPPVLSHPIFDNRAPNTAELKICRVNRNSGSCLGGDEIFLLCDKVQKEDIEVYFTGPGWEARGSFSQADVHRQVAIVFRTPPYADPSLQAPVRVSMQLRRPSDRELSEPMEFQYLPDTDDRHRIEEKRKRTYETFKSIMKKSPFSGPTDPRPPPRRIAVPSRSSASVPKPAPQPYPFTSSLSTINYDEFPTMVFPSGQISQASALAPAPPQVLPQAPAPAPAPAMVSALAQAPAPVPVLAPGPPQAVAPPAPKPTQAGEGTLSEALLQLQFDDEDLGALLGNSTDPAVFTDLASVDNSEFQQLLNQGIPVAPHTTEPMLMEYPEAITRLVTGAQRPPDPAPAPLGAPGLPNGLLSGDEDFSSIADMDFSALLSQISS
T3 sequence (P23804 whole entry): as the sequence (P23804 whole entry, the tested form may be a part) above

BioID-fused Iκβα showed a signal value in experiment [1] of 4530.
The molecule BioID-fused TP53 had a signal value in experiment [2] of 1860.
Regarding TurboID-fused Iκβα, the signal value is over 65000 in experiment [3], over 65000 in experiment [4] and 7030 in experiment [5].
On to TurboID-fused TP53, for which the values for the signal value in experiment [6], in [7] and in experiment [8] were over 65000, over 65000 and 10200, respectively.
In the case of “TP53: TP53 (SEQ ID NO: 4), fused to AirID as substance to be analyzed in Example 2”, the “luminescence (biotin detection) between TP53 and MDM2” value in [9] is recorded as “recognized”.

B1: AirID-S118G mutant-fused Iκβα (other)
fusion protein: MKDNTVPLTLISILADGEFHSGEQLGEQLGMSRAAINKHIKTLRDWGVDVFRVQGKGYCLPEPIQLLDEEKIRQQLDEGSVTVLPVIDSTNQYLLDRLDELTSGDVCIAEYQQAGRGGRGRKWFSPFGANLYLSMYWRLEQGPAAAMGLSLVIGIVMAETLQKLGADGVRVKWPNDLYLNDRKLAGILVEMTGKTGDAAHIVIGAGINLSMREPETDEVDQSWINLQEAGITIDRNQLAARLIKDLRSALRQFEQQGLAPFLSRWEALDNFINRPVKLIIGDREIHGIARGINEQGALLLEQDGVIKPWIGGEISLRSAMFQAAERPQEWAMEGPRDGLKKERLLDDRHDSGLDSMKDEEYEQMVKELQEIRLEPQEVPRSSEPWKQQLTEDGDSFLHLAIIHEEKALTMEVIRQVKGDLAFLNFQNNLQQTPLHLAVITNQPEIAEALLGAGCDPELRDFRGNTPLHLACEQGCLASVGVLTQSCTTPHLHSILKATNYNGHTCLHLASIHGYLGIVELLVSLGADVNAQEPCNGRTALHLAVDLQNPDLVSLLLKCGADVNRVTYQGYSPYQLTWGRPSTRIQQQLGQLTLENLQMLPESEDEESYDTESEFTEFTEDELPYDDCVFGGQRLTL
Regarding B1, the binding result in experiment [10] is “no binding”. Besides, the signal value in experiment [11] came to 220; in experiment [12] it was 10200; in [13], 370; in experiment [14] it was 51400; in [15], 240; in experiment [16], 9570.

B2: AVVA-R118G mutant-fused Iκβα (other)
fusion protein: MSEQWSRKREILALLSSGHFVSGEELATQLGISRTAVSKHIAALEEYGVDIYSVKGKGYKLANPISLIDESKLKSAINNRCFYFDEIPSTNGFMLKHAEELKSGDICVAEYQSAGRGGRGRTWVSPYGCHLYFSLYWRFPQGMAQAMGLSLVVACSLVKVLKSFGVDGVGVKWPNDIYLNHKKLAGVLIEMSGQADSECHLVIGIGINMAMSEQQGKKIDQPWSDLSSLTSMPDKTELLIALQKQLKQDLELFEREGLKAFQPRWQEADLFYGKQIKLLMGENQVEGICRGIDEQGAVLLETDDGIQAFIGGEISLRAAMFQAAERPQEWAMEGPRDGLKKERLLDDRHDSGLDSMKDEEYEQMVKELQEIRLEPQEVPRSSEPWKQQLTEDGDSFLHLAIIHEEKALTMEVIRQVKGDLAFLNFQNNLQQTPLHLAVITNQPEIAEALLGAGCDPELRDFRGNTPLHLACEQGCLASVGVLTQSCTTPHLHSILKATNYNGHTCLHLASIHGYLGIVELLVSLGADVNAQEPCNGRTALHLAVDLQNPDLVSLLLKCGADVNRVTYQGYSPYQLTWGRPSTRIQQQLGQLTLENLQMLPESEDEESYDTESEFTEFTEDELPYDDCVFGGQRLTL
With B2, the binding result in experiment [10] was “no binding”. Further, the signal value in experiment [11] turned out to be 230; in [13], 310; in [14], 39400; in experiment [15] it was 140; in [16] it was 6900.

B3: AVVA-R118S,Q141R mutant-fused Iκβα (other)
fusion protein: MSEQWSRKREILALLSSGHFVSGEELATQLGISRTAVSKHIAALEEYGVDIYSVKGKGYKLANPISLIDESKLKSAINNRCFYFDEIPSTNGFMLKHAEELKSGDICVAEYQSAGRGSRGRTWVSPYGCHLYFSLYWRFPRGMAQAMGLSLVVACSLVKVLKSFGVDGVGVKWPNDIYLNHKKLAGVLIEMSGQADSECHLVIGIGINMAMSEQQGKKIDQPWSDLSSLTSMPDKTELLIALQKQLKQDLELFEREGLKAFQPRWQEADLFYGKQIKLLMGENQVEGICRGIDEQGAVLLETDDGIQAFIGGEISLRAAMFQAAERPQEWAMEGPRDGLKKERLLDDRHDSGLDSMKDEEYEQMVKELQEIRLEPQEVPRSSEPWKQQLTEDGDSFLHLAIIHEEKALTMEVIRQVKGDLAFLNFQNNLQQTPLHLAVITNQPEIAEALLGAGCDPELRDFRGNTPLHLACEQGCLASVGVLTQSCTTPHLHSILKATNYNGHTCLHLASIHGYLGIVELLVSLGADVNAQEPCNGRTALHLAVDLQNPDLVSLLLKCGADVNRVTYQGYSPYQLTWGRPSTRIQQQLGQLTLENLQMLPESEDEESYDTESEFTEFTEDELPYDDCVFGGQRLTL
Take B3: the binding result in [10] is “no binding”. The signal value is 190 in [11]; 37500 in experiment [12]; 230 in [13]; over 65000 in experiment [14]; 120 in experiment [15]; 10400 in experiment [16].

B4: AVVA-R118G,Q141R mutant-fused Iκβα (other)
fusion protein: MSEQWSRKREILALLSSGHFVSGEELATQLGISRTAVSKHIAALEEYGVDIYSVKGKGYKLANPISLIDESKLKSAINNRCFYFDEIPSTNGFMLKHAEELKSGDICVAEYQSAGRGGRGRTWVSPYGCHLYFSLYWRFPRGMAQAMGLSLVVACSLVKVLKSFGVDGVGVKWPNDIYLNHKKLAGVLIEMSGQADSECHLVIGIGINMAMSEQQGKKIDQPWSDLSSLTSMPDKTELLIALQKQLKQDLELFEREGLKAFQPRWQEADLFYGKQIKLLMGENQVEGICRGIDEQGAVLLETDDGIQAFIGGEISLRAAMFQAAERPQEWAMEGPRDGLKKERLLDDRHDSGLDSMKDEEYEQMVKELQEIRLEPQEVPRSSEPWKQQLTEDGDSFLHLAIIHEEKALTMEVIRQVKGDLAFLNFQNNLQQTPLHLAVITNQPEIAEALLGAGCDPELRDFRGNTPLHLACEQGCLASVGVLTQSCTTPHLHSILKATNYNGHTCLHLASIHGYLGIVELLVSLGADVNAQEPCNGRTALHLAVDLQNPDLVSLLLKCGADVNRVTYQGYSPYQLTWGRPSTRIQQQLGQLTLENLQMLPESEDEESYDTESEFTEFTEDELPYDDCVFGGQRLTL
With B4, the binding result in experiment [10] is recorded as “no binding”. Besides, the signal value in experiment [11] was 280; in experiment [12], 10100; in experiment [13] it was 430; in [14], over 65000; in experiment [15], 550.

Source of the values: patent US20230251254A1, “METHOD FOR EVALUATING INTERACTION BETWEEN IMMOBILIZED SUBSTANCE IMMOBILIZED DIRECTLY OR INDIRECTLY ON SUBSTRATE AND PROXIMITY-DEPENDENT MODIFYING ENZYMELABELED SUBSTANCE TO BE ANALYZED” (CELLFREE SCIENCES CO.,LTD., priority 2020, published 2023).
